{"source": "the supplement of paper PMC10724198", "note": "± gives the standard deviation of the averaged measurements.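 Also: PSI is a weighted mean of sequencing reads over stability bins, variants kept only with over 10 reads, mCherry proximal and sfGFP distal, peptide attached via GGGS linker.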", "data": [{"system": "Saccharomyces cerevisiae", "assay": "protein stability index of tFT-peptide fusion (C-terminal peptide) (PSI (0-1 scale)); higher = more stable (slower turnover)", "details": "genetic background: wild type; temperature: 30 C", "procedure": "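Multiplexed protein stability (MPS) profiling in S. cerevisiae. Random 12-aa peptides (tFT-X12 library) are fused to the C-terminus of a sfGFP-mCherry tandem fluorescent timer, after mCherry and a GGGS linker. Cells are FACS-sorted into 8 mCherry/sfGFP bins and deep-sequenced. The protein stability index (PSI) is the read-weighted bin average, scaled from 0 (unstable) to 1 (stable). Only peptides with >10 reads are reported; cells were grown at 30 °C in SC-His with glucose.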", "values": [{"sequence": "DGVWVRCGTLGF", "protein stability index": "0.715 ± 0.078"}, {"sequence": "DHCRTQHLGLEM", "protein stability index": "0.725 ± 0.015"}, {"sequence": "DHGVRASSRATG", "protein stability index": "0.692 ± 0.015"}, {"sequence": "DHHGGTEPHRVP", "protein stability index": "0.7079 ± 0.0052"}, {"sequence": "DICCGLCGLLPR", "protein stability index": "0.658 ± 0.079"}, {"sequence": "DIGGLGYCDCVK", "protein stability index": "0.758 ± 0.054"}, {"sequence": "DIGGTDYDPAIS", "protein stability index": "0.7138 ± 0.0017"}, {"sequence": "DIHLSRQKTRIL", "protein stability index": "0.752 ± 0.17"}, {"sequence": "DIKKSTKGQNQQ", "protein stability index": "0.602 ± 0.025"}, {"sequence": "DILCRILLRPKG", "protein stability index": "0.63 ± 0.031"}, {"sequence": "DIRFSAARRPTG", "protein stability index": "0.6627 ± 0.0053"}, {"sequence": "DIRKAEISANFC", "protein stability index": "0.59434 ± 2.4e-05"}, {"sequence": "DITQSRIHMTNI", "protein stability index": "0.661 ± 0.055"}, {"sequence": "DKKEEEKKSTKH", "protein stability index": "0.70302 ± 0.00026"}, {"sequence": "DKNDGNHKKKKN", "protein stability index": "0.702 ± 0.017"}, {"sequence": "DKPVDTRPGSPG", "protein stability index": "0.66 ± 0.031"}, {"sequence": "DKSHRKNKKKRN", "protein stability index": "0.699 ± 0.0074"}, {"sequence": "DKYKIDKKSKRK", "protein stability index": "0.683 ± 0.059"}, {"sequence": "DLATSVVYIVTV", "protein stability index": "0.506 ± 0.0077"}, {"sequence": "DLDVVGEGSAGT", "protein stability index": "0.683 ± 0.046"}, {"sequence": "DLFLTSSCPCLC", "protein stability index": "0.55106 ± 4.5e-05"}, {"sequence": "DLGLEVVSFLKF", "protein stability index": "0.741 ± 0.068"}, {"sequence": "DLPDGRRFIVIG", "protein stability index": "0.682 ± 0.08"}, {"sequence": "DLPDLQPACPRF", "protein stability index": "0.722 ± 0.019"}, {"sequence": "DLPSSPCSYFRR", "protein stability index": "0.616 ± 0.034"}, {"sequence": "DLRVSLLSHLSL", "protein stability index": "0.679 ± 0.11"}, {"sequence": "DLSAGKWSRSSD", "protein stability index": "0.689 ± 0.023"}, {"sequence": "DLSAGPPFLLIR", "protein stability index": "0.6717 ± 0.0038"}, {"sequence": "DLTGKGCIYMER", "protein stability index": "0.702 ± 0.034"}, {"sequence": "DLVGSWMCGPDL", "protein stability index": "0.691 ± 0.028"}, {"sequence": "DLVRGGNCVYGV", "protein stability index": "0.66 ± 0.032"}, {"sequence": "DMAVYLVSVSRV", "protein stability index": "0.609 ± 0.053"}, {"sequence": "DMCLSVIEQTAC", "protein stability index": "0.6123 ± 0.0028"}, {"sequence": "DMSQKSENKKLI", "protein stability index": "0.689 ± 0.011"}, {"sequence": "DPLLYLCLGSQC", "protein stability index": "0.676 ± 0.017"}, {"sequence": "DPLVDLCGPLSL", "protein stability index": "0.717 ± 0.077"}, {"sequence": "DPPDPASIHLSF", "protein stability index": "0.752 ± 0.0096"}, {"sequence": "DPRHDNRYPRVR", "protein stability index": "0.617 ± 0.16"}, {"sequence": "DPTWIKKRPSIP", "protein stability index": "0.666 ± 0.044"}, {"sequence": "DPVVSQLSSVPA", "protein stability index": "0.656 ± 0.041"}, {"sequence": "DQAWYFVRLAGD", "protein stability index": "0.766 ± 0.2"}, {"sequence": "DQIYEKQKIPST", "protein stability index": "0.621 ± 0.0079"}, {"sequence": "DQLGARSGELLR", "protein stability index": "0.697 ± 0.063"}, {"sequence": "DREGIELHKNKD", "protein stability index": "0.658 ± 0.0072"}, {"sequence": "DREVGQGRLTEE", "protein stability index": "0.6359 ± 0.0018"}, {"sequence": "DRGFSVGGGWGW", "protein stability index": "0.676 ± 0.066"}, {"sequence": "DRGSLVASGGGG", "protein stability index": "0.713 ± 0.015"}, {"sequence": "DRKWSPGSGVVD", "protein stability index": "0.696 ± 0.051"}, {"sequence": "DRLGGVSQVNIQ", "protein stability index": "0.751 ± 0.042"}, {"sequence": "DRPACVAHKLFS", "protein stability index": "0.677 ± 0.0073"}, {"sequence": "DRRARTDEKKKK", "protein stability index": "0.646 ± 0.01"}, {"sequence": "DRSLRLGSLTSG", "protein stability index": "0.6 ± 0.017"}, {"sequence": "DRWGGRGDYRCI", "protein stability index": "0.72 ± 0.019"}, {"sequence": "DSAVTPPTTCLP", "protein stability index": "0.719 ± 0.028"}, {"sequence": "DSCQALIWLVFT", "protein stability index": "0.586 ± 0.021"}, {"sequence": "DSETLLSKEWKQ", "protein stability index": "0.651 ± 0.11"}, {"sequence": "DSFLLSSKICWT", "protein stability index": "0.745 ± 0.0069"}, {"sequence": "DSFSEFDSSPVI", "protein stability index": "0.727 ± 0.03"}, {"sequence": "DSLTNAELVFAC", "protein stability index": "0.607 ± 0.0068"}, {"sequence": "DSMGKVLLTCAN", "protein stability index": "0.581 ± 0.0094"}, {"sequence": "DSPLAGALTEVD", "protein stability index": "0.715 ± 0.04"}, {"sequence": "DSPPRATFSAPR", "protein stability index": "0.69 ± 0.036"}, {"sequence": "DSPTGLKFTQSL", "protein stability index": "0.634 ± 0.1"}, {"sequence": "DSRPLASAVRLS", "protein stability index": "0.681 ± 0.017"}, {"sequence": "DSSFLPHLRLAP", "protein stability index": "0.689 ± 0.053"}, {"sequence": "DSSRANRCISDR", "protein stability index": "0.654 ± 0.046"}, {"sequence": "DTCWHELILAFS", "protein stability index": "0.592 ± 0.087"}, {"sequence": "DTEYVFLYSSQE", "protein stability index": "0.7029 ± 0.0051"}, {"sequence": "DTFVFSWGVGWG", "protein stability index": "0.76 ± 0.041"}, {"sequence": "DTGLGSVVFVVF", "protein stability index": "0.688 ± 0.036"}, {"sequence": "DTLFNRFLHTSI", "protein stability index": "0.69 ± 0.046"}, {"sequence": "DVAPPFLSFFVV", "protein stability index": "0.62 ± 0.011"}, {"sequence": "DVFVFHVLKKYP", "protein stability index": "0.654 ± 0.025"}, {"sequence": "DVLDCTLVEQGA", "protein stability index": "0.68 ± 0.035"}, {"sequence": "DVRPVWGMAGSE", "protein stability index": "0.742 ± 0.12"}, {"sequence": "DVVFVARGRAND", "protein stability index": "0.7002 ± 0.0037"}, {"sequence": "DWGRRGGALAVI", "protein stability index": "0.641 ± 0.012"}, {"sequence": "DWLAFSYYFSVV", "protein stability index": "0.599 ± 0.041"}, {"sequence": "EAEKTERCVIKG", "protein stability index": "0.645 ± 0.027"}, {"sequence": "EAGGRWEVSCQA", "protein stability index": "0.6133 ± 0.0017"}, {"sequence": "EAKKKRIDKKYE", "protein stability index": "0.776 ± 0.068"}, {"sequence": "EALLWWGAWGVV", "protein stability index": "0.769 ± 0.02"}, {"sequence": "EARFLWLTFLFG", "protein stability index": "0.546 ± 0.068"}, {"sequence": "EARGPGPVGGGT", "protein stability index": "0.702 ± 0.085"}, {"sequence": "EAVVVLVSRFGL", "protein stability index": "0.695 ± 0.044"}, {"sequence": "ECFRWQRRLHYD", "protein stability index": "0.533 ± 0.024"}, {"sequence": "ECSGGGCGQRVG", "protein stability index": "0.733 ± 0.056"}, {"sequence": "EDACARFVRLFL", "protein stability index": "0.678 ± 0.051"}, {"sequence": "EDCICPLNWFTA", "protein stability index": "0.711 ± 0.013"}, {"sequence": "EDIIRPWSMFQE", "protein stability index": "0.718 ± 0.043"}, {"sequence": "EDKKKKTKANDT", "protein stability index": "0.669 ± 0.028"}, {"sequence": "EDLFELPNSNFS", "protein stability index": "0.73653 ± 0.00022"}, {"sequence": "EEKQLNKIKRKI", "protein stability index": "0.662 ± 0.059"}, {"sequence": "EEKRPWRRELLS", "protein stability index": "0.562 ± 0.025"}, {"sequence": "EEMTVKKERKRI", "protein stability index": "0.641 ± 0.051"}, {"sequence": "EENLLYLLYVEC", "protein stability index": "0.544 ± 0.016"}, {"sequence": "EERELGVVWGEV", "protein stability index": "0.702 ± 0.024"}, {"sequence": "EERENKKKLDQT", "protein stability index": "0.659 ± 0.029"}]}]}
